Test results as given in patent publication US20200339648A1 (University of Washington, published 2020).
Where a chain is given by its changes, count along the chain named.

T1: human IL-2 receptor βγc heterodimer (hIL-2Rβγc), soluble (human, UniProt P14784 27-240; P31785 23-254, biotin on the C-terminal biotin acceptor peptide)
T1 construct: also called HsIL-2Rβγc; hIL-2Rβνc
T1 sequence 1: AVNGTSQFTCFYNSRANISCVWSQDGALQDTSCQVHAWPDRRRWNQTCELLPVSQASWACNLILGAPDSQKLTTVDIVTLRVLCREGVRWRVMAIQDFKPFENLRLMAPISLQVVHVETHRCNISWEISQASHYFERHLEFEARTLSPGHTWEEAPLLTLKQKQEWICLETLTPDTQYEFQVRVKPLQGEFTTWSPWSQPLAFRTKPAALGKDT
T1 sequence 2: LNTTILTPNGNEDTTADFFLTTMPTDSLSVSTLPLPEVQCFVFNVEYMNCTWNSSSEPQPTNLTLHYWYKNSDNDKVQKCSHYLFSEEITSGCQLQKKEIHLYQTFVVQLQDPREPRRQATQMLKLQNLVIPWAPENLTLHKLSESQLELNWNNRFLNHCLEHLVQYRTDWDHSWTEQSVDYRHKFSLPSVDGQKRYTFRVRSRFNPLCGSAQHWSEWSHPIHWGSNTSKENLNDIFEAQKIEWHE

T2: human IL-2 receptor β subunit (hIL-2Rβ) (human, UniProt P14784 27-240, biotin on the C-terminal biotin acceptor peptide)
T2 construct: Biotinylated and immobilised on streptavidin; also called HsIL-2Rβ; human IL-2Rβ
T2 sequence: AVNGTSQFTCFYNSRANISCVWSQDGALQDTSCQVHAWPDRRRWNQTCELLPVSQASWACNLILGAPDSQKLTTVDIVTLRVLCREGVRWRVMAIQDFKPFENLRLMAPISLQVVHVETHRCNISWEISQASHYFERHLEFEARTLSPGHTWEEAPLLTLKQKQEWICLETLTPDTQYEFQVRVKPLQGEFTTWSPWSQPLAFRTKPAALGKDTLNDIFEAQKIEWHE

T3: fluorescently labeled chimeric hIL-2Rβγc (human, UniProt P14784 27-240; P31785 23-254)
T3 construct: How beta and gamma are joined and labeled is not described; also called fluorescently-tagged beta-gamma chimeric IL-2 receptor; chimeric ILRβγc
T3 sequence (looked up) 1: T1 sequence 1
T3 sequence (looked up) 2: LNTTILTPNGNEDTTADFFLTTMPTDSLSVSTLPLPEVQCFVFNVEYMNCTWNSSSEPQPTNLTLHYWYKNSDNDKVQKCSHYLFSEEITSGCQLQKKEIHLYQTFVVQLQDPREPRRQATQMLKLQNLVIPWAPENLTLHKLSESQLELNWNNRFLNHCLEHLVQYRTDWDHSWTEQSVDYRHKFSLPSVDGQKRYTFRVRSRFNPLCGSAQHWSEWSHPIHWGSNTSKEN

T4: IL-2Rβγc (species not stated)
T4 chain 1: T1 sequence 1
T4 chain 2: T3 sequence (looked up) 2

T5: mouse IL-2 receptor βγc heterodimer (mIL-2Rβγc), soluble (mouse, UniProt P16297 27-240; P34902 23-263, biotin on the C-terminal biotin acceptor peptide)
T5 construct: extracellular domain; also called MmIL-2Rβγc; mIL-2Rβνc
T5 sequence 1: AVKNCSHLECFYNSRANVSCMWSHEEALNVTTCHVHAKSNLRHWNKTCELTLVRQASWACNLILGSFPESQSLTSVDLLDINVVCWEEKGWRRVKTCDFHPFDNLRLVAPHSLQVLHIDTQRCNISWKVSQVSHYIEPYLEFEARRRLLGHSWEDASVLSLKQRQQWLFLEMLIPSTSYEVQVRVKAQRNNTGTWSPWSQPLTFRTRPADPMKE
T5 sequence 2: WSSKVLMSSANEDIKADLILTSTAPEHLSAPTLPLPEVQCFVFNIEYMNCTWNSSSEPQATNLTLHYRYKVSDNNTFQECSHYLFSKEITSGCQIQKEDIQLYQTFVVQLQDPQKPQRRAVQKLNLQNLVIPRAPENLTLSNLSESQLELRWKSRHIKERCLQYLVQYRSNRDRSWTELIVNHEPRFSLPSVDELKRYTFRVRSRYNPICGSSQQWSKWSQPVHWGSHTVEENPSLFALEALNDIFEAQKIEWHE

T6: human IL-2Rβγc on human cells (YT-1 NK cells) (human, UniProt P14784 27-551; P31785 23-369)
T6 sequence (looked up) 1: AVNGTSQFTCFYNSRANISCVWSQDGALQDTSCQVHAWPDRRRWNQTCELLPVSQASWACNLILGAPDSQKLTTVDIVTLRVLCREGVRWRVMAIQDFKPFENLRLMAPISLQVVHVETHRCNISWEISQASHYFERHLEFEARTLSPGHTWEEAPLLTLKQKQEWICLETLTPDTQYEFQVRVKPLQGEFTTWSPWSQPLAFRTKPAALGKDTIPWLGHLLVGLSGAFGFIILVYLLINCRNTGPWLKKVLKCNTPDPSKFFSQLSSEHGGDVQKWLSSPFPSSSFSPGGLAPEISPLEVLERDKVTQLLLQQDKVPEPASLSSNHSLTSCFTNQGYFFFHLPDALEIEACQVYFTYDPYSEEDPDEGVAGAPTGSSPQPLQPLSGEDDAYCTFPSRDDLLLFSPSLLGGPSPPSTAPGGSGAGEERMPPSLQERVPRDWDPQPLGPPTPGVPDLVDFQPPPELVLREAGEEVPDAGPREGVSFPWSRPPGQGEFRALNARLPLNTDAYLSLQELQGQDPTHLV
T6 sequence (looked up) 2: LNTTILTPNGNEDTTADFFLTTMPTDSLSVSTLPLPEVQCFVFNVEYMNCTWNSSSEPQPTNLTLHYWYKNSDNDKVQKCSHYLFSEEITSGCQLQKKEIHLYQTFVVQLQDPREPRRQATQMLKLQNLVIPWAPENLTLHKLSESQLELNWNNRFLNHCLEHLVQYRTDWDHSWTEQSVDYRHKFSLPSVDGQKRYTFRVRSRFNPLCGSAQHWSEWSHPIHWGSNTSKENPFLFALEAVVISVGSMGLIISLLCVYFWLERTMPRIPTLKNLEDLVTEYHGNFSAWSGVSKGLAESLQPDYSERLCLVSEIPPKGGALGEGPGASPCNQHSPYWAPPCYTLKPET

B1: G1_neo2_43 (designed binder)
chain: STKKIQLQLEHALLDVQMALNRSPEPNESLNRMITWLQSCISTGKCDLDNAQEMAKEAEKIRKEMEKRGIDVRDLISNIIVILLELS
notes: Single-disulfide stapled variation; In yeast display between Aga2 and a myc tag; also called G1_ne02_43
B2: G1_neo2_40 (designed binder)
chain: STKKLQLQAEHALLDAQMMLNRSPEPNEKLNRIITTMQSWISTGKIDLDGAKELAKEVEELRQEAEKRGIDVRDLASNLKVILLELA
notes: also called G1_ne02_40
B3: G1_neo2_41 (designed binder)
chain: B2 chain with W40C, I46C
notes: Single-disulfide stapled variation; In yeast display between Aga2 and a myc tag; also called G1_ne02_41
B4: G1_neo2_44 (designed binder)
chain: B1 chain with C40W, C46I, A55C, I80C
B5: G1_neo2_35 (designed binder)
chain: STKKWQLQAEHALLDWQMALNKSPEPNENLNRAITAAQSWISTGKIDCDKAEDIRRNSDQARREAEKRGIDVRDLISNAQVILLEAC
B6: Neoleukin-2/15 terminal disulfide variant (CNSN and NFQC added at the termini) (designed binder)
chain: CNSNKKKIQLHAEHALYDALMILNIVKTNSPPAEEKLEDYAFNFELILEEIARLFESGDQKDEAEKAKRMKEWMKRIKTTASEDEQEEMANAIITILQSWIFNFQC
modifications: disulfide bond between the N-terminal and the C-terminal cysteine
notes: also called external disulfide-staple
B7: Neoleukin-2/15 internal disulfide variant (disulfide between residues 38 and 75) (designed binder)
chain: PKKKIQLHAEHALYDALMILNIVKTNSPPAEEKLEDYCFNFELILEEIARLFESGDQKDEAEKAKRMKEWMKRICTTASEDEQEEMANAIITILQSWIFS
modifications: disulfide bond between the cysteines at residues 38 and 75
notes: also called internal disulfide-staple
B8: G2_neo2_40_1F_seq29_S8 (designed binder)
chain: EDYYSNLKLILEELAREMERNGLSDKAEEWRQWKKIVERIRQIRSNNSDLNEAKELLNRLITYIQSQIFEVLEGVGETDQEKKEESWKKWELHLEHALLDVLMLLND
B9: G2_neo2_40_1F_seq29_S7 (designed binder)
chain: B8 chain with L9V, R59E, L72I, G74R, V75E
B10: G2_neo2_40_1F_seq29_S6 (designed binder)
chain: B8 chain with E73H, E91D, H93L
B11: G2_neo2_40_1F_seq27_S24 (designed binder)
chain: TNKKAQLHAEFALYDALMLLNLSSESNERLNDIITWLQSIIFTGTYDPDMVKEAVKLADEIEDEMRKRKIDTEDYVVNLRYILQELA
B12: G2_neo2_40_1F_seq27_S18 (designed binder)
chain: B11 chain with K4E, D32R, T43Y, G44E, Y81L
B13: G2_neo2_40_1F_seq27_S22 (designed binder)
chain: B11 chain with N2K, K4D, Q6E, H8L, D32E, T43Y, K69G, V77S, Y81L
B14: G2_neo2_40_1F_seq36_S12 (designed binder)
chain: PKKKIQLLAEHALFDLLMILNIVKTNSQNAEEKLEDYAYNAGVILEEIARLFESGDQKDEAEKAKRMKEWMKRIKDTASEDEQEEMANEIITILQSWNFS

target: T1, human IL-2 receptor βγc heterodimer …; experiment: SPR, equilibrium titration; IL-2Rγ on streptavidin chip, saturating IL-2Rβ in solution
Description: (§1) Less than 100 response units (RU) of each ligand was immobilized to minimize mass transfer effects. […] Surface regeneration for all interactions was conducted using 15 s exposure to 1 M MgCl2 in 10 mM sodium acetate pH 5.5. SPR experiments were carried out in HBS-P+ buffer (GE Healthcare) supplemented with 0.2% bovine serum albumin (BSA) at 25° C. and all binding studies were performed at a flow rate of […] to prevent analyte rebinding. Data was visualized and processed using the Biacore T100 evaluation software version 2.0 (GE Healthcare). Equilibrium titration curve fitting and equilibrium binding dissociation (KD) value determination was implemented using GraphPad Prism assuming all binding interactions to be first order. Biolayer interferometry: binding data were collected in a Octet RED96 (ForteBio, Menlo Park, Calif.) and processed using the instrument's integrated software using a 1:1 binding model. […] Analyte proteins were diluted from concentrated stocks into binding buffer. After baseline measurement in binding buffer alone, the binding kinetics were monitored by dipping the biosensors in wells containing 100 nM of the designed protein (association) and then dipping the sensors back into baseline wells (dissociation).

| Binder | Kd [nM] |
| --- | --- |
| B1 | 533 |
| B2 | 260 |
| B3 | 187 |

target: T2, human IL-2 receptor β subunit (hIL-2Rβ); experiment: SPR, equilibrium titration; biotinylated IL-2Rβ on streptavidin chip
Description: as §1

| Binder | Kd [nM] |
| --- | --- |
| B1 | 2860 |
| B2 | 1460 |
| B3 | 721 |

target: T3, fluorescently labeled chimeric hIL-2Rβγc; experiment: yeast display, flow cytometry

| Binder | binding result |
| --- | --- |
| B4 | no binding (tested: 2 nM) |
| B5 | no binding (tested: 2 nM) |

Target: T4, IL-2Rβγc (species not stated)
Experiment: biolayer interferometry

| Binder | Kd [nM] |
| --- | --- |
| B6 | ~1.8 |
| B7 | ~1.3 |

target: T1, human IL-2 receptor βγc heterodimer …; experiment: affinity maturation by yeast display for human and mouse IL-2Rβνc
Description: (§2) The vector was linearized by 100 fold overdigestion by NdeI and XhoI (New England Biolabs) and then purified by gel extraction (Qiagen). The genes included 50 bases of overlap with the vector on both the 5′ and 3′ ends such that homologous recombination would place the genes in frame between the AGA2 gene and the myc tag on the vector. Yeast were grown in C-Trp-Ura media prior to induction in SGCAA media as previously described. […] After approximately 30 minutes, cells were washed again in chilled buffer, and then incubated on ice for 5 minutes with FITC-conjugated anti-c-Myc antibody (1 uL per 3×10⁶ cells) and streptavidin-phycoerythrin (1 uL per 100 uL volume of yeast). Yeast were then washed and counted by flow cytometry (Accuri C6) or sorted by FACS (Sony SH800).

| Binder | binding result |
| --- | --- |
| B8 | binds |
| B9 | binds |
| B10 | binds |
| B11 | binds |
| B12 | binds |
| B13 | binds |
| B14 | binds |

target: T5, mouse IL-2 receptor βγc heterodimer …; experiment: as above
Description: as §2

| Binder | binding result |
| --- | --- |
| B8 | binds |
| B9 | binds |
| B10 | binds |
| B11 | binds |
| B12 | binds |
| B13 | binds |
| B14 | binds |

target: T6, human IL-2Rβγc on human cells (YT-1 NK …); experiment: cell-based or functional assay

| Binder | EC50 (CD25-) pSTAT5p, human NK (YT, CD25-) cells |
| --- | --- |
| B1 | 0.21 nM |
| B2 | 0.14 nM |
| B3 | 70 pM |
